Results published in publication PMC7529705.
Several values for one entry are separate records, joined by “and”; a condition that tells them apart may be missing. Equal entries are not always repeated.

Target: WD-40 repeat-containing protein 5 (WDR5), full-length (human) (UniProt P61964)
Test: ITC

| Kd | Substance |
| --- | --- |
| 10.6 µM and 10.2 µM | Histone H3 1–7aa H3R2me2s peptide (from UniProt P68431 2-8) |
| 8.1 µM and 9 µM | Histone H3 1–7aa H3R2me1 peptide (from UniProt P68431 2-8) |
| 11 µM and 11.8 µM | Histone H3 1–7aa unmodified peptide (from UniProt P68431 2-8) |
